The supplement of paper PMC7125110
± gives the standard error. Fewer inactive variants are shown than the library holds.

B1: glmS ribozyme (parent)
chain: AUAAAAGCGCCAGAACUACAGAAAUGUAGUUGACGAGGAGGAGGUUUAUCGAAUUUUCGGCGGAUGCCUCCAAA

How the values were obtained:
Details in all cases: with glucosamine-6-phosphate
glucosamine-6-phosphate [1] = variants of: B1; test: self-cleavage kobs at 40 uM GlcN6P; higher = faster cleavage; RNA array
Procedure, shortened: (§1)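 Tiles of sequenced MiSeq chips were imaged over ~14 h at 37 °C. On them, barcoded ribozyme variants had been transcribed in situ by E. coli RNA polymerase and were tracked via a hybridised Cy3 probe while glucosamine-6-phosphate (40 μM to 10 mM) in HEPES/KCl/Mg(OAc)2 buffer flowed in. Per-tile medians, normalised to baseline and to non-cleaving reference variants, were fit to one- or two-exponential decays for kobs, and weighted Michaelis–Menten fits gave kcat and KM.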

glucosamine-6-phosphate [2] = variants of: B1; test: self-cleavage kobs at 160 uM GlcN6P; higher = faster cleavage; RNA array
Procedure, shortened: as §1

glucosamine-6-phosphate [3] = variants of: B1; test: self-cleavage kobs at 640 uM GlcN6P; higher = faster cleavage; RNA array
Procedure, shortened: as §1

glucosamine-6-phosphate [4] = variants of: B1; test: self-cleavage kobs at 2500 uM GlcN6P; higher = faster cleavage; RNA array
Procedure, shortened: as §1

glucosamine-6-phosphate [5] = variants of: B1; test: self-cleavage kobs at 10000 uM GlcN6P; higher = faster cleavage; RNA array
Procedure, shortened: as §1

Row | Variant | self-cleavage kobs at 40 uM GlcN6P (glucosamine-6-phosphate [1]) [s⁻¹] | self-cleavage kobs at 160 uM GlcN6P (glucosamine-6-phosphate [2]) [s⁻¹] | self-cleavage kobs at 640 uM GlcN6P (glucosamine-6-phosphate [3]) [s⁻¹] | self-cleavage kobs at 2500 uM GlcN6P (glucosamine-6-phosphate [4]) [s⁻¹] | self-cleavage kobs at 10000 uM GlcN6P (glucosamine-6-phosphate [5]) [s⁻¹]
1 | G7A C34A | < 1e-05 | < 1e-05 | < 1e-05 | < 1e-05 | < 1e-05
2 | G13C G62A | < 1e-05 |  |  | < 1e-05 | 
3 | G7A A52C | < 1e-05 | < 1e-05 | < 1e-05 | < 1e-05 | < 1e-05
4 | A15C U56G | 6.11e-05 ± 1.3e-05 | 7.19e-05 ± 1.9e-05 | 0.000276 ± 8.7e-05 | 0.0011 ± 0.00025 | 0.00228 ± 0.00048
5 | U46A C58U | < 1e-05 | < 1e-05 | < 1e-05 |  | 
6 | C11G A36G | < 1e-05 | < 1e-05 | < 1e-05 | < 1e-05 | < 1e-05
7 | C8U A33C C71A | < 1e-05 |  |  |  | 
8 | C8A C50U C67G | < 1e-05 |  |  |  | 
9 | U57G U65A | < 1e-05 |  | < 1e-05 |  | 
10 | G41C G44C | < 1e-05 | < 1e-05 | < 1e-05 | < 1e-05 | < 1e-05
11 | A53G G66U C67A | 7.95e-05 ± 1.9e-05 |  |  |  | 0.00186 ± 0.00059
12 | A33C G63U C67U | < 1e-05 |  |  |  | 
13 | C11A G32C | < 1e-05 |  |  |  | 
14 | C11U U65A | < 1e-05 |  | 0.000121 ± 3.6e-05 | 9.22e-05 ± 2e-05 | 
15 | A53U G62C | < 1e-05 |  | < 1e-05 | < 1e-05 | < 1e-05
16 | G37U A52U | < 1e-05 |  | < 1e-05 | < 1e-05 | 
17 | A15U A42G G62U | < 1e-05 |  |  | < 1e-05 | < 1e-05
18 | A64G U65A C68G | < 1e-05 |  |  |  | 
19 | C8G G13A G37U G44C A53U G63U | < 1e-05 |  |  |  | 
20 | C8U G43U G44U C71A | < 1e-05 |  | < 1e-05 |  | 
21 | G60C A64G | < 1e-05 | < 1e-05 | < 1e-05 | < 1e-05 | < 1e-05

Row | Variant | self-cleavage kobs at 40 uM GlcN6P (glucosamine-6-phosphate [1]) [s⁻¹] | self-cleavage kobs at 160 uM GlcN6P (glucosamine-6-phosphate [2]) [s⁻¹] | self-cleavage kobs at 640 uM GlcN6P (glucosamine-6-phosphate [3]) [s⁻¹] | self-cleavage kobs at 2500 uM GlcN6P (glucosamine-6-phosphate [4]) [s⁻¹] | self-cleavage kobs at 10000 uM GlcN6P (glucosamine-6-phosphate [5]) [s⁻¹]
22 | G35C A48U | < 1e-05 |  |  | < 1e-05 | < 1e-05
23 | C16U C50G G62A C67G | 6.99e-05 ± 1.9e-05 |  | 0.000337 ± 7.8e-05 |  | 9.28e-05 ± 1.6e-05
24 | A42U U57C | < 1e-05 | < 1e-05 | < 1e-05 |  | 
25 | U31A C50G C58A | 5.39e-05 ± 1.9e-05 |  | 0.00134 ± 0.00032 | 0.000414 ± 0.00012 | 
26 | G43U A64C | < 1e-05 | < 1e-05 | < 1e-05 |  | < 1e-05
27 | C8U G9A | < 1e-05 | < 1e-05 | < 1e-05 | < 1e-05 | < 1e-05
28 | U46C C50G | < 1e-05 |  | < 1e-05 |  | 
29 | A6G C10U A39U | < 1e-05 | < 1e-05 |  | < 1e-05 | < 1e-05
30 | G9C A53U | < 1e-05 | < 1e-05 | < 1e-05 | < 1e-05 | < 1e-05
31 | G7U G9C | < 1e-05 | < 1e-05 | < 1e-05 | < 1e-05 | < 1e-05
32 | A15C G35U C50U | < 1e-05 |  |  | < 1e-05 | < 1e-05
33 | A6G A36C G51A | < 1e-05 |  |  | < 1e-05 | < 1e-05
34 | C50G G59A | 4.42e-05 ± 2.2e-05 | 8.57e-05 ± 2.1e-05 |  |  | 
35 | A14C C61G | < 1e-05 |  |  |  | < 1e-05
36 | G40C C61G | < 1e-05 | < 1e-05 | < 1e-05 | < 1e-05 | < 1e-05
37 | A15C G40A U49G C71U | < 1e-05 |  |  |  | 4.71e-05 ± 1.3e-05
38 | G37U G40A G41U A52G | < 1e-05 |  |  |  | 
39 | G51C C61U G62C | < 1e-05 |  |  |  | < 1e-05
40 | G9A C58G U65C | < 1e-05 |  | < 1e-05 | < 1e-05 | 
41 | A15G U54A G62C U65A | < 1e-05 |  | < 1e-05 | < 1e-05 | < 1e-05
42 | A12U A14G C16G | 0.000643 ± 0.00021 |  |  |  | 

Row | Variant | self-cleavage kobs at 40 uM GlcN6P (glucosamine-6-phosphate [1]) [s⁻¹] | self-cleavage kobs at 160 uM GlcN6P (glucosamine-6-phosphate [2]) [s⁻¹] | self-cleavage kobs at 640 uM GlcN6P (glucosamine-6-phosphate [3]) [s⁻¹] | self-cleavage kobs at 2500 uM GlcN6P (glucosamine-6-phosphate [4]) [s⁻¹] | self-cleavage kobs at 10000 uM GlcN6P (glucosamine-6-phosphate [5]) [s⁻¹]
43 | C10G G35A | < 1e-05 | < 1e-05 | < 1e-05 |  | 
44 | A33U A36C G59C | < 1e-05 |  |  |  | < 1e-05
45 | A6G G51U U65A | < 1e-05 |  |  |  | < 1e-05
46 | A6C A42U | < 1e-05 | < 1e-05 | < 1e-05 |  | < 1e-05
47 | A15C G35U A36G U65C C68A | < 1e-05 |  |  |  | < 1e-05
48 | C11A A36C | < 1e-05 | < 1e-05 | < 1e-05 | < 1e-05 | < 1e-05
49 | G9A U56G | < 1e-05 | < 1e-05 |  |  | 
50 | G41C U69A | < 1e-05 | < 1e-05 | < 1e-05 |  | 
51 | C11G G60C | < 1e-05 | < 1e-05 | < 1e-05 |  | < 1e-05
52 | C11U A52U G60C | < 1e-05 |  | < 1e-05 |  | < 1e-05
53 | A36G G59U | < 1e-05 | < 1e-05 | < 1e-05 | < 1e-05 | < 1e-05
54 | G32U A52C | < 1e-05 |  | < 1e-05 |  | < 1e-05
55 | C10U U45G G51U A64U | < 1e-05 |  |  |  | < 1e-05
56 | G51C G63A | < 1e-05 | < 1e-05 |  | < 1e-05 | 
57 | A42U G51U | < 1e-05 | < 1e-05 | < 1e-05 |  | < 1e-05
58 | A42C C61A | < 1e-05 | < 1e-05 |  | < 1e-05 | < 1e-05
59 | G32C U47G U55G U65C U69G | 0.000245 ± 8.5e-05 |  |  |  | 0.000357 ± 9.5e-05
60 | U30G G59C | < 1e-05 |  | < 1e-05 |  | < 1e-05
61 | A6C C8A A48U A52C | < 1e-05 |  |  |  | < 1e-05
62 | G32A A48U C70U | < 1e-05 |  |  |  | 
63 | G44C G59C | < 1e-05 |  | < 1e-05 | < 1e-05 | < 1e-05

Row | Variant | self-cleavage kobs at 40 uM GlcN6P (glucosamine-6-phosphate [1]) [s⁻¹] | self-cleavage kobs at 160 uM GlcN6P (glucosamine-6-phosphate [2]) [s⁻¹] | self-cleavage kobs at 640 uM GlcN6P (glucosamine-6-phosphate [3]) [s⁻¹] | self-cleavage kobs at 2500 uM GlcN6P (glucosamine-6-phosphate [4]) [s⁻¹] | self-cleavage kobs at 10000 uM GlcN6P (glucosamine-6-phosphate [5]) [s⁻¹]
64 | G40C A48C | < 1e-05 | < 1e-05 | < 1e-05 |  | 
65 | C8G A12C A15G U30G G38A U46C | < 1e-05 |  |  |  | < 1e-05
66 | A42U C71G | < 1e-05 | < 1e-05 |  |  | 3.51e-05 ± 1e-05
67 | C10G A33U G43U G63C C71G | < 1e-05 |  |  |  | 
68 | G13C G60A | < 1e-05 | < 1e-05 | < 1e-05 | < 1e-05 | < 1e-05
69 | C11A C16G U54A C68A | 6.79e-05 ± 2.4e-05 |  |  |  | 5.11e-05 ± 2e-05
70 | C8A A48C | < 1e-05 | < 1e-05 | < 1e-05 | < 1e-05 | < 1e-05
71 | A42G C68U | 0.000563 ± 7.3e-05 | 0.000735 ± 0.00016 | 0.00237 ± 0.00041 |  | 0.0168 ± 0.0034
72 | G41U G60C | < 1e-05 | < 1e-05 | < 1e-05 | < 1e-05 | < 1e-05
73 | A42G G43U | < 1e-05 | < 1e-05 | < 1e-05 | < 1e-05 | 
74 | G7C G38U C70G | < 1e-05 |  |  |  | 
75 | A36C C70A | 3.5e-05 ± 1.7e-05 | 0.000113 ± 3.7e-05 | 6.93e-05 ± 3e-05 |  | 
76 | A6G C34A | < 1e-05 | < 1e-05 | < 1e-05 | < 1e-05 | < 1e-05
77 | G7U G35A | < 1e-05 | < 1e-05 | < 1e-05 | < 1e-05 | < 1e-05
78 | C11A G60U | < 1e-05 | < 1e-05 | < 1e-05 | < 1e-05 | < 1e-05
79 | G9C A42G | < 1e-05 | < 1e-05 |  | < 1e-05 | < 1e-05
80 | A33G G44U C67U | < 1e-05 |  |  |  | < 1e-05
81 | G63C A64U | < 1e-05 |  | < 1e-05 | < 1e-05 | < 1e-05
82 | U31C U49A A64U | < 1e-05 |  |  |  | < 1e-05
83 | G40U G44C | < 1e-05 | < 1e-05 | < 1e-05 |  | 
84 | C50G A53C C67G | 7.76e-05 ± 2.5e-05 | 0.000121 ± 2.6e-05 | 0.000198 ± 6.2e-05 | 0.000336 ± 0.00012 | 5.98e-05 ± 1.9e-05
